Tests used:
[1] = molecular target: T1, ScPif1 (Saccharomyces cerevisiae Pif1, residues 236–753) (Saccharomyces cerevisiae, UniProt P07271); assay: ATP hydrolysis assay; assay type: biochemical; conditions: ATPase rate only in supplement
T1 construct: helicase core domain, residues 236-753; N-terminal SUMO tag (pET28a) cleaved by Ulp protease; E. coli BL21; monomer on G4 DNA
T1 sequence (P07271 236-753): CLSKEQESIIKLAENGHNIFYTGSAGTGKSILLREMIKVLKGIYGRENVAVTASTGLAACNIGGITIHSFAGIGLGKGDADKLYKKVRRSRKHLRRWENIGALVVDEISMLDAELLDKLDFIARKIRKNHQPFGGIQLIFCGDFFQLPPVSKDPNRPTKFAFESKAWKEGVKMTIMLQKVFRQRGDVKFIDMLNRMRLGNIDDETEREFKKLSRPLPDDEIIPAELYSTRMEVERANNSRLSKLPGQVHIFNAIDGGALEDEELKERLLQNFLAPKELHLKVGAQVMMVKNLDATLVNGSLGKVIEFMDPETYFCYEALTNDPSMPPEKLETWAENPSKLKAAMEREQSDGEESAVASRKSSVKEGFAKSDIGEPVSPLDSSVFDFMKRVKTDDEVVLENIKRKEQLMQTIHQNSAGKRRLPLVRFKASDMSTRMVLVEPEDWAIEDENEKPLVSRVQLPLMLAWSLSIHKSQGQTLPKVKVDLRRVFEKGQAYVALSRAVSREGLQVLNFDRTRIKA

[2] = molecular target: T2, ScPif1 (Saccharomyces cerevisiae, UniProt P07271 236-753); assay: fluorescence anisotropy; no nucleotide; Fluorescence anisotropy: 20 mM HEPES-NaOH pH 7.5, 100 mM NaCl, 10% glycerol, 20 C, 10 nM FAM-DNA, 30 min, quadratic fit; conditions: protein: recombinant, tags: N-terminal SUMO tag (Ni-NTA purified), cleaved by Ulp protease, label: 3' 6-FAM
T2 sequence: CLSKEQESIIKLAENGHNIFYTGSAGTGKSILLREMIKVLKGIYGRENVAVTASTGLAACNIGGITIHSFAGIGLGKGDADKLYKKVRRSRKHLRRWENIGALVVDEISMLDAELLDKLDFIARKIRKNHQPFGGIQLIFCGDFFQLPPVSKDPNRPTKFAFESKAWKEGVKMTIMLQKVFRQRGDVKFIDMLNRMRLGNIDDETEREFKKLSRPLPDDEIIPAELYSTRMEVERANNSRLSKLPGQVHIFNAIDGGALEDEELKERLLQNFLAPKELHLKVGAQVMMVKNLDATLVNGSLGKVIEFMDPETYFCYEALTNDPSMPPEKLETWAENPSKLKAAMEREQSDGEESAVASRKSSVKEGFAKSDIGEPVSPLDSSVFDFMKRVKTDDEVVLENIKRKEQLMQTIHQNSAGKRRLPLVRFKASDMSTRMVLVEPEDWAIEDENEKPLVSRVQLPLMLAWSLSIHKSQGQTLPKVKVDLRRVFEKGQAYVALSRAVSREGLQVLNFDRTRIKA

[3] = molecular target: T3, ScPif1 R324Y (Saccharomyces cerevisiae, UniProt P07271 236-753, R324Y); assay: as above; conditions: protein: recombinant; tags: N-terminal SUMO tag, cleaved; label: 3' 6-FAM; parallel intramolecular G4
T3 sequence: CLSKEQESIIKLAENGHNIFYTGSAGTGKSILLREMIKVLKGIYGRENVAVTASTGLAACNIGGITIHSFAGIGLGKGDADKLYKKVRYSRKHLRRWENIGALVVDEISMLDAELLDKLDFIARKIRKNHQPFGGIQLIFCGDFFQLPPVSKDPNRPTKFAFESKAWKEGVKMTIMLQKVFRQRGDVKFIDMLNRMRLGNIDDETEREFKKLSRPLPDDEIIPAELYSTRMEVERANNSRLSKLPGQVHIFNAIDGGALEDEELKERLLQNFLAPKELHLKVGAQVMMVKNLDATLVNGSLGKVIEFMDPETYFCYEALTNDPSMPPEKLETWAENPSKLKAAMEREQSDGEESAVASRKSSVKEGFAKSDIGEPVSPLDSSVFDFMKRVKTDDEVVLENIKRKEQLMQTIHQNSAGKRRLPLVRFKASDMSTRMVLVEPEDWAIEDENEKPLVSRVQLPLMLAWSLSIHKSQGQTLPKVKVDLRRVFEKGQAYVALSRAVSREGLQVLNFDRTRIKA

[4] = molecular target: T4, ScPif1 R324E (Saccharomyces cerevisiae, UniProt P07271 236-753, R324E); assay: as above; conditions: protein: recombinant; tags: N-terminal SUMO tag, cleaved; label: 3' 6-FAM; parallel intramolecular G4
T4 sequence: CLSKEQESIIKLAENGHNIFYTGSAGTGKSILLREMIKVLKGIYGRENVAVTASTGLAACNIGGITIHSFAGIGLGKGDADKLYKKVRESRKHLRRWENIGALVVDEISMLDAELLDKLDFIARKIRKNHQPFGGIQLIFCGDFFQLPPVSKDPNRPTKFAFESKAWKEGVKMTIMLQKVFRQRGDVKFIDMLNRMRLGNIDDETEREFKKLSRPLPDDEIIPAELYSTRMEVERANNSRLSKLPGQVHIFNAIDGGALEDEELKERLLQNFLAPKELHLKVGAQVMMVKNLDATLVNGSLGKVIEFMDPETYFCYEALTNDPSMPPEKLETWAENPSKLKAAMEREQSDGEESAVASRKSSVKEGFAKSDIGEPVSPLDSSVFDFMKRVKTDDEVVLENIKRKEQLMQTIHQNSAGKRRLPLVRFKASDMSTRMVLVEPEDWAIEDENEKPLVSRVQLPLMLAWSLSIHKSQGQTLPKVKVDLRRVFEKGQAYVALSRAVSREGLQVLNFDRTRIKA

[5] = molecular target: T5, ScPif1 R324W (Saccharomyces cerevisiae, UniProt P07271 236-753, R324W); assay: as above; conditions: protein: recombinant; tags: N-terminal SUMO tag, cleaved; label: 3' 6-FAM; parallel intramolecular G4
T5 sequence: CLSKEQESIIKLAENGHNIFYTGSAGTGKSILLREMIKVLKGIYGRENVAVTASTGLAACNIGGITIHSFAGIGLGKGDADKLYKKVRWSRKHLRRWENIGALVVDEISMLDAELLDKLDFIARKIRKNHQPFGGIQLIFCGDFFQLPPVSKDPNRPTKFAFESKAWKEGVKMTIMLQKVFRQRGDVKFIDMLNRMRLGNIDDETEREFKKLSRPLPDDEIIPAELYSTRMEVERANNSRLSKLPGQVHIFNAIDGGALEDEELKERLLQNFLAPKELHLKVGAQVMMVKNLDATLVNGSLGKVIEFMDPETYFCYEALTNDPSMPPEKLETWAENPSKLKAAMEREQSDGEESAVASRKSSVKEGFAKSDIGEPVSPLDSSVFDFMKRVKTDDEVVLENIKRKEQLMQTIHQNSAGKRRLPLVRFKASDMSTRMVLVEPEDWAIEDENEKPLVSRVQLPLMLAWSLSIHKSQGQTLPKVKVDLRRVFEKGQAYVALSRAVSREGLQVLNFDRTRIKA

[6] = molecular target: T6, ScPif1 R324A (Saccharomyces cerevisiae, UniProt P07271 236-753, R324A); assay: as above; conditions: protein: recombinant; tags: N-terminal SUMO tag, cleaved; label: 3' 6-FAM; parallel intramolecular G4
T6 sequence: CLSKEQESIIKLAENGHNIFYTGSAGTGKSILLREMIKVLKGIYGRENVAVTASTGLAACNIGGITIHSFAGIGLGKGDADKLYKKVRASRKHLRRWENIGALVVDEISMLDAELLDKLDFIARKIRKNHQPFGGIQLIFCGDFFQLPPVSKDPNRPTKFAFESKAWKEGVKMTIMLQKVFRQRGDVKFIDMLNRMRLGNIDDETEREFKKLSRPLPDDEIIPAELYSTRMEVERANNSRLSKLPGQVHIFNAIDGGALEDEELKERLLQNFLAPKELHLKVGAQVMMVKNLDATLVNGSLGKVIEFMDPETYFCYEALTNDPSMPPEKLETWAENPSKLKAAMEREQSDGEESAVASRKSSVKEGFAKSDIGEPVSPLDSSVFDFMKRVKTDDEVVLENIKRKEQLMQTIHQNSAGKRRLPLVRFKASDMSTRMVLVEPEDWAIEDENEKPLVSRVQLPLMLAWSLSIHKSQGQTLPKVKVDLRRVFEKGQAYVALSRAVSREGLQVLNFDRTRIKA

Molecule: Nc1ncnc2c1ncn2[C@@H]1O[C@H](COP(=O)(O)OP(=O)(O)OP(=O)(O)O)[C@@H](O)[C@H]1O [ATP]
- ATP hydrolysis assay [1]: they hydrolyze ATP at a similar rate to WT ScPif1

Molecule: TTTTTTT (ssDNA) [T7-FAM]
- Kd ([2]; single strand): 12.8 nM

Molecule: TGGTGGTGGTTGTTGTGGTGGTGGTGGT (structured_DNA) [AT11-FAM]
- Kd [3]: 10.9 nM
- Kd [4]: 25.6 nM
- Kd ([2]; parallel intramolecular G4): 11.2 nM
- Kd [5]: 9.57 nM
- Kd [6]: 11.8 nM

Molecule: TTTTTTTTGGTGGTGGTTGTTGTGGTGGTGGTGGT (structured_DNA) [T7-AT11-FAM]
- Kd ([2]; parallel intramolecular G4 with 5' ssDNA tail): 7.23 nM

Reference: paper PMC11275212, “Eukaryotic Pif1 helicase unwinds G-quadruplex and dsDNA using a conserved wedge” (Nature Communications, 2024)
